# Data reported in PMC3760334.
# Experiments:
# [1] = biological target: signal recognition particle (SRP), fluorescein-labeled at C421 (E. coli) (UniProt P0AGD7); assay: fluorescence polarisation
# [2] = biological target: RNC_(1A9L) bound to donor-labeled SRP (E. coli | not stated) (UniProt P0AGD7); assay: FRET or BRET
# [3] = biological target: RNC_(2A8L) bound to donor-labeled SRP (E. coli | not stated) (UniProt P0AGD7); assay: FRET or BRET
# [4] = biological target: RNC_(EspP) bound to donor-labeled SRP (E. coli) (UniProt P0AGD7); assay: FRET or BRET
# [5] = biological target: RNC_(luciferase) bound to donor-labeled SRP (E. coli | firefly) (UniProt P0AGD7); assay: FRET or BRET
substance,measurement,setting,value
RNC_(EspP): stalled ribosome-nascent chain complex with the signal sequence of EspP,Kd,[1],13.6 nM
RNC_(luciferase): stalled ribosome-nascent chain complex with a nascent chain of firefly luciferase (from UniProt P08659 1-550),Kd,[1],130 nM
RNC_(phoA): stalled ribosome-nascent chain complex with the signal sequence of alkaline phosphatase (phoA),Kd,[1],108 nM
"SRP receptor (SR), acceptor-labeled (from UniProt P10121 1-497)",kon,[2],9.9e+06 M⁻¹ s⁻¹
same,kon,[3],8.8e+06 M⁻¹ s⁻¹
same,Kd,[4],311 nM
same,Kd,[5],2060 nM
